Measurements from patent publication US20100003258A1.

Columns and labels:
Assay in all cases: cell-based or functional assay
[1] = molecular target: human FGFR3 IIIb on FDCP-1 cells (FDCP-FGFR3 IIIb #122) (human), P22607
[2] = molecular target: FDCP-FGFR3 IIIb and FDCP-FGFR3 IIIc cell lines
[3] = molecular target: human FGFR3 IIIc on FDCP-1 cells (FDCP-FGFR3 IIIc #109) (human), P22607
[4] = molecular target: human FGFR3 IIIc G380R on FDCP-1 cells (FGFR3 IIIc G380R #1) (human), P22607
Chain of human FGFR3 IIIc G380R on FDCP-1 cells (FGFR3 IIIc G380R #1) (human), P22607 (P22607 23-806 G380R): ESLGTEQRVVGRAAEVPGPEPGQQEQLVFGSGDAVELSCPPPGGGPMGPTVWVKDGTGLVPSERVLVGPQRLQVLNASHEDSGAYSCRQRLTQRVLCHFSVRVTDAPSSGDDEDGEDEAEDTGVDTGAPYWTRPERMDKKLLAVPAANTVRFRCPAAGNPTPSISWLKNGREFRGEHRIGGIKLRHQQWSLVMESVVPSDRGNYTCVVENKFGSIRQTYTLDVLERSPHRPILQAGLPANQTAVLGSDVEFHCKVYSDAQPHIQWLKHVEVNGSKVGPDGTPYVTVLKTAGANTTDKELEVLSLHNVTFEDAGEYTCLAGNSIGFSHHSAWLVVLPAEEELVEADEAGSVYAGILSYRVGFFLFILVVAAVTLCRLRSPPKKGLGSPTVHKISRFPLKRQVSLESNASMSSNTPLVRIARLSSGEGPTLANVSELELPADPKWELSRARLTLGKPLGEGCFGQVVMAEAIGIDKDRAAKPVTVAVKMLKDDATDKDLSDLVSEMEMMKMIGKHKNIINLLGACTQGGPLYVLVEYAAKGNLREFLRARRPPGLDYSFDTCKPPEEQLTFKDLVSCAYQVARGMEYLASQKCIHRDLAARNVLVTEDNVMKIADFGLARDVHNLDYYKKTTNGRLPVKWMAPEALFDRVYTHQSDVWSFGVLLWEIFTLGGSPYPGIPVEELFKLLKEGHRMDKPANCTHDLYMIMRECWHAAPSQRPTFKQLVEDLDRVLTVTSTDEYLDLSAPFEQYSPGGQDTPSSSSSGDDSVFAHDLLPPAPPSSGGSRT

Chain of human FGFR3 IIIb on FDCP-1 cells (FDCP-FGFR3 IIIb #122) (human), P22607 (P22607 23-806): as the sequence (P22607 23-806 G380R) above, with R358G counted along it
Chain of human FGFR3 IIIc on FDCP-1 cells (FDCP-FGFR3 IIIc #109) (human), P22607 (P22607 23-806): as the sequence (P22607 23-806 G380R) above, with R358G counted along it

FDCP Proliferation IC50, FGFR3 IIIb [1] [nM]	maximal inhibition of FGF1 induced proliferation of FDCP-FGFR3 cell lines [2] [%]	FDCP Proliferation IC50, FGFR3 IIIc [3] [nM]	FDCP Proliferation IC50, FGFR3 IIIc G380R [4] [nM]	Binder
1.51	40	102		anti-FGFR3 monoclonal antibody 20B4 (antibody, mouse IgG1, kappa) heavy: EIQLQQSGPELVKPGASVKVSCKASGYSLTDYNMYWVKQSHGKSLEWIGYIDPYNGGTSYNQKFKGKATLTVDKSSSTAFMHLNSLTSEDSAVYYCARSLGPDFDYWGQGTTLTVSSAKTTPPSVYPLAPGSAAQTNSMVTLGCLVKGYFPEPVTVTWNSGSLSSGVHTFPAVLQSDLYTLSSSVTVPSSTWPSETVTCNVAHPASSTKVDKKIVPRDCGCKPCICTVPEVSSVFIFPPKPKDVLTITLTPKVTCVVVDISKDDPEVQFSWFVDDVEVHTAQTQPREEQFNSTFRSVSELPIMHQDWLNGKEFKCRVNSAAFPAPIEKTISKTKGRPKAPQVYTIPPPKEQMAKDKVSLTCMITDFFPEDITVEWQWNGQPAENYKNTQPIMDTDGSYFVYSKLNVQKSNWEAGNTFTCSVLHEGLHNHHTEKSLSHSPGK light: QIVLTQSPAIMSASPGEKVTMTCSASSSVNYMHWYQQKSGTSPKRWIYDTSKLASGVPARFSGSGSGTSYSLTISSMEAEDTATYYCQQWNSNPLTFGAGTKLELKRADAAPTVSIFPPSSEQLTSGGASVVCFLNNFYPKDINVKWKIDGSERQNGVLNSWTDQDSKDSTYSMSSTLTLTKDEYERHNSYTCEATHKTSTSPIVKSFNRNEC
0.14		0.28	3.1	anti-FGFR3 monoclonal antibody 15D8 (antibody, mouse IgG1, kappa) heavy: EIQLQQSGPELVKPGASVKVSCKASGYAFTSYNMYWVKQSHGKSLEWIGYIDPYNGGTSYNQKFKGKATLTVDKSSSTAYMHLNSLTSEDSAVYYCAREGGNYEAWFAYWGQGTLVTVSAAKTTPPSVYPLAPGSAAQTNSMVTLGCLVKGYFPEPVTVTWNSGSLSSGVHTFPAVLQSDLYTLSSSVTVPSSTWPSETVTCNVAHPASSTKVDKKIVPRDCGCKPCICTVPEVSSVFIFPPKPKDVLTITLTPKVTCVVVDISKDDPEVQFSWFVDDVEVHTAQTQPREEQFNSTFRSVSELPIMHQDWLNGKEFKCRVNSAAFPAPIEKTISKTKGRPKAPQVYTIPPPKEQMAKDKVSLTCMITDFFPEDITVEWQWNGQPAENYKNTQPIMDTDGSYFVYSKLNVQKSNWEAGNTFTCSVLHEGLHNHHTEKSLSHSPGK light: QIVLTQSPALMSASPGEKVTMTCSASSSVSYMYWYQQKPRSSPKPWIYLTSYLASGVPARFSGSGSGTSYSLTISSMEAEDAATYYCQQWSSYPLTFGAGTKLELKRADAAPTVSIFPPSSEQLTSGGASVVCFLNNFYPKDINVKWKIDGSERQNGVLNSWTDQDSKDSTYSMSSTLTLTKDEYERHNSYTCEATHKTSTSPIVKSFNRNEC
0.56		0.59	8.8	anti-FGFR3 monoclonal antibody 27H2 (antibody, mouse IgG1, kappa) heavy: EIQLQQSGPELVKPGASVKVSCKASGYAFTSYNMYWVKQSHGKSLEWIGYIDPYNGGTRYNQKFKGKATMTVDKSSSTAYMHLNSLTSEDSAVYYCAREGGNYEAWFAYWGQGTLVTVSAAKTTPPSVYPLAPGSAAQTNSMVTLGCLVKGYFPEPVTVTWNSGSLSSGVHTFPAVLQSDLYTLSSSVTVPSSTWPSETVTCNVAHPASSTKVDKKIVPRDCGCKPCICTVPEVSSVFIFPPKPKDVLTITLTPKVTCVVVDISKDDPEVQFSWFVDDVEVHTAQTQPREEQFNSTFRSVSELPIMHQDWLNGKEFKCRVNSAAFPAPIEKTISKTKGRPKAPQVYTIPPPKEQMAKDKVSLTCMITDFFPEDITVEWQWNGQPAENYKNTQPIMDTDGSYFVYSKLNVQKSNWEAGNTFTCSVLHEGLHNHHTEKSLSHSPGK light: QIVLTQSPALMSASPGEKVTMTCSASSSVSYMYWYQQKPRSSPKPWIYLTSNLASGVPARFSGSGSGTSYSLTISSMEAEDAATYYCQQWSSNPLTFGAGTKLELKRADAAPTVSIFPPSSEQLTSGGASVVCFLNNFYPKDINVKWKIDGSERQNGVLNSWTDQDSKDSTYSMSSTLTLTKDEYERHNSYTCEATHKTSTSPIVKSFNRNEC
0.63		0.5	11.7	anti-FGFR3 monoclonal antibody 2G4 (antibody, mouse IgG1, kappa) heavy: EIQLQQSGPELVKPGASVKVSCKASGYAFTSYNMYWVKQSHGKSLEWIGYIDPYNGGTRDNQKFKGKATLTVDKSSSTAYMHLNSLTSEDSAVYYCAREGGNYEAWFAYWGQGTLVTVSAAKTTPPSVYPLAPGSAAQTNSMVTLGCLVKGYFPEPVTVTWNSGSLSSGVHTFPAVLQSDLYTLSSSVTVPSSTWPSETVTCNVAHPASSTKVDKKIVPRDCGCKPCICTVPEVSSVFIFPPKPKDVLTITLTPKVTCVVVDISKDDPEVQFSWFVDDVEVHTAQTQPREEQFNSTFRSVSELPIMHQDWLNGKEFKCRVNSAAFPAPIEKTISKTKGRPKAPQVYTIPPPKEQMAKDKVSLTCMITDFFPEDITVEWQWNGQPAENYKNTQPIMDTDGSYFVYSKLNVQKSNWEAGNTFTCSVLHEGLHNHHTEKSLSHSPGK light: QIVLTQSPALMSASPGEKVTMTCSASSSVSYMYWYQQKPRSSPKPWIYLTSNLASGVPARFSGSGSGTSYSLTISSMEAEDAATYYCQQWSSNPLTFGAGTKLELKRADAAPTVSIFPPSSEQLTSGGASVVCFLNNFYPKDINVKWKIDGSERQNGVLNSWTDQDSKDSTYSMSSTLTLTKDEYERHNSYTCEATHKTSTSPIVKSFNRNEC
0.9		0.62	3.5	anti-FGFR3 monoclonal antibody 4E7 (antibody, mouse IgG1, kappa) heavy: EIQLQQSGPELVKPGASVKVSCKASGYAFTSYNMYWVKQSHGKSLEWIGYIDPYNGGTRYNQKFKGKATLTVDKSSSTAYMHLNSLTSEDSAVYYCAREGGNYEAWFAYWGQGTLVTVSAAKTTPPSVYPLAPGSAAQTNSMVTLGCLVKGYFPEPVTVTWNSGSLSSGVHTFPAVLQSDLYTLSSSVTVPSSTWPSETVTCNVAHPASSTKVDKKIVPRDCGCKPCICTVPEVSSVFIFPPKPKDVLTITLTPKVTCVVVDISKDDPEVQFSWFVDDVEVHTAQTQPREEQFNSTFRSVSELPIMHQDWLNGKEFKCRVNSAAFPAPIEKTISKTKGRPKAPQVYTIPPPKEQMAKDKVSLTCMITDFFPEDITVEWQWNGQPAENYKNTQPIMDTDGSYFVYSKLNVQKSNWEAGNTFTCSVLHEGLHNHHTEKSLSHSPGK light: QIVLTQSPALMSASPGEKVTMTCSASSSVSYMYWYQQKPRSSPKPWIYLTSNLASGVPARFSGSGSGTSYSLTISSMEAEDAATYYCQQWSSNPLTFGAGTKLELKRADAAPTVSIFPPSSEQLTSGGASVVCFLNNFYPKDINVKWKIDGSERQNGVLNSWTDQDSKDSTYSMSSTLTLTKDEYERHNSYTCEATHKTSTSPIVKSFNRNEC
